{"source": "patent US20250290928A1", "about": "“METHOD, KIT AND DEVICE FOR DETECTING EXTRACELLULAR VESICLES” (priority 2022, published 2025)", "key": {"[1]": {"target": "T1, MMP14 in the MDA-MB-231-derived extracellular vesicles (Homo sapiens, UniProt P50281)", "T1 construct": "in terms of intact MMP14 with a molecular weight of 70 kDa", "test": "Evaluation of MMP14 activity of MDA-MB-231-derived extracellular vesicles with 96-well plate", "type": "biochemical", "description": "A relative fluorescence unit difference ΔRFU was calculated by subtracting the measured value of the sample for BG measurement from the measured value of each of the samples.\nThe concentration of the solution is 41.7 μg/mL. The concentration of the solution was set to x1, and 2-fold serial dilution was performed to prepare standard samples with six concentrations.\n50 μL of the MMP14 detection solution was added to 50 μL of each of the samples, a reaction was performed at 37° C., and MMP14 activity was evaluated.\nThe concentration of the solution is 10 μg/mL.\n50 μL of each of the MMP14 detection solutions was added to 50 μL of each of the samples, a reaction was performed at 37° C., and MMP14 activity was evaluated. […]\nThe concentration of the solution is 20 μg/mL. The concentration of the solution was set to x1, and 3-fold serial dilution was performed to prepare standard samples with three concentrations.\nThe concentration of the solution is 8 μg/mL.\n50 μL of each of the MMP14 detection solutions was added to 50 μL of the sample, a reaction was performed at 37° C., and MMP14 activity was evaluated. […]\n50 μL of the MMP14 detection solution was added to 50 μL of each of the samples, a reaction was performed at 30° C., and MMP14 activity was evaluated.\nThe MMP14 activity of the extracellular vesicles was evaluated with a 96-well plate (137101). A fluorescence intensity was measured with a fluorescence plate reader (Synergy) at 30° C. every 5 minutes for 2 hours. For measurement wavelengths, an excitation wavelength of 545±20 nm and a fluorescence wavelength of 588±20 nm were used. A relative fluorescence unit difference (ΔRFU) was calculated by subtracting the measured value of the sample for BG measurement from the measured value of each of the samples.\n50 μL of each of the MMP14 detection solutions was added to 50 μL of each of the samples, a reaction was performed at 30° C., and MMP14 activity was evaluated."}, "[2]": {"target": "T1, MMP14 in the MDA-MB-231-derived extracellular vesicles", "test": "Digital detection of MDA-MB-231-derived extracellular vesicles through MMP14 activity in wells (microcompartments)", "type": "biochemical", "settings": "for Expected value λ / Number of positives / Positive ratio: Example 42, EV 2.5 μg/mL, reporter 5 μM, 30° C., TRITC filter; for Expected value λ (×1) / Extracellular vesicle concentration: single reporter; for Expected value λ (×1): at EV concentration x1; for Extracellular vesicle concentration: at x1, from λ (×1) and 50 fL microcompartment", "description": "The concentration of the solution is 6.7 μg/mL.\n100 μL of the MMP14 detection solution was added to 100 μL of the sample to provide a reaction solution for wells. […] 100 μL of 200 μL of the prepared reaction solution for wells was used in the measurement of MMP14 activity with a 96-well plate.\nNext, the wells were filled with the reaction solution by leaving the well array 200 to stand under reduced pressure to degas the space 205. After that, the space 205 was fed with hydrophobic solvents to be sealed. Fluorinated oils AsahiKlin AE-3000 (manufactured by AGC Inc.) and Fomblin Y-25 (manufactured by Solvay S.A.) were used as the hydrophobic solvents. A fluorinated oil Simoa (trademark) SR-X Sealing Oil: 102767 (manufactured by Quanterix Corporation) was further used as another hydrophobic solvent.\nWell diameter: 4.25 μm Well depth: 3.25 μm Well capacity: 50 fL Number of wells in array: 239,000 Array range: 3 mm×4 mm\nThe concentration of the solution is 20 μg/mL. […] The concentration of the solution was set to x1, and 10-fold serial dilution was performed to prepare standard samples with five concentrations.\nNext, the wells were filled with the reaction solution by leaving the well array 200 to stand under reduced pressure to degas the space 205. After that, the space 205 was fed with hydrophobic solvents to be sealed.\nThe concentration of the solution is 20 μg/mL. […] The concentration of the solution was set to x1, and 3-fold serial dilution was performed to prepare standard samples with three concentrations.\nThe concentration of the solution is 20 μg/mL. […] The concentration of the solution was set to x1, and 2-fold serial dilution was performed to prepare standard samples with four concentrations.\nThe concentration of the solution is 5 μg/mL.\n50 μL of the MMP14 detection solution was added to 50 μL of the sample to provide a reaction solution for wells.\n50 μL of each of the MMP14 detection solutions was added to 50 μL of the sample to provide a reaction solution for wells.\nThe concentration of the solution is 6.7 µg/mL."}}, "note": "No end group written: not given here. TQ3 = quencher", "data": [{"substance": "TAMRA-GGPLGLAGGK(TQ3) ({TAMRA}-GGPLGLAGGK(TQ3)) [Custom #2T]", "values": [{"measurement": "Fluorescence change after 2 hours of reaction at 30° C.", "setting": "[1]; Example 41, EV 5 μg/mL, reporter 5 μM, buffer (4), excitation 545±20 nm, fluorescence 588±20 nm", "value": "6,455 ΔRFU"}, {"measurement": "Fluorescence change after 2 hours of reaction at 30° C.", "setting": "[1]; MP, 1.25 μM #2T with 1.25 μM #1, EV 3.3 μg/mL", "value": "1,015 ΔRFU"}, {"measurement": "Fluorescence change after 2 hours of reaction at 30° C.", "setting": "[1]; MP, 1.25 μM #2T with 1.25 μM #2, EV 3.3 μg/mL", "value": "1,734 ΔRFU"}, {"measurement": "Fluorescence change after 2 hours of reaction at 30° C.", "setting": "[1]; MP, 2.5 μM #2T with 2.5 μM #1, EV 3.3 μg/mL", "value": "1,118 ΔRFU"}, {"measurement": "Fluorescence change after 2 hours of reaction at 30° C.", "setting": "[1]; MP, 2.5 μM #2T with 2.5 μM #2, EV 3.3 μg/mL", "value": "2,196 ΔRFU"}, {"measurement": "Expected value λ", "setting": "[2]; 4 hr", "value": 0.1255}, {"measurement": "Number of positives", "setting": "[2]; 4 hr", "value": "3,313"}, {"measurement": "Positive ratio", "setting": "[2]; 4 hr", "value": 0.118}, {"measurement": "Expected value λ", "setting": "[2]; 24 hr", "value": 0.1339}, {"measurement": "Number of positives", "setting": "[2]; 24 hr", "value": "3,518"}, {"measurement": "Positive ratio", "setting": "[2]; 24 hr", "value": 0.1253}, {"measurement": "Expected value λ (×1)", "setting": "[2]; reaction 4 hr", "value": 0.5022}, {"measurement": "Extracellular vesicle concentration", "setting": "[2]; reaction 4 hr", "value": "1.0044e+10", "unit": "mL⁻¹"}, {"measurement": "Expected value λ (×1)", "setting": "[2]; reaction 24 hr", "value": 0.5354}, {"measurement": "Extracellular vesicle concentration", "setting": "[2]; reaction 24 hr", "value": "1.0709e+10", "unit": "mL⁻¹"}]}]}
